# Measurements from article PMC4742278, “BS69/ZMYND11 C-Terminal Domains Bind and Inhibit EBNA2” (PLoS Pathogens, 2016).
# B1: EBNA2_(435–445) peptide (NH2-…-CONH2) (peptide)
# peptide: H-EAPILFPDDWY-NH2
# How the values were obtained:
# [1] = target: BS69 MYND domain (BS69_(MYND), residues 516–562) (mouse); test: ITC; peptide (~1 mM) titrated into BS69_(MYND) or BS69_(CC-MYND) (~0.1 mM) at 5°C; 20 mM Tris-HCl pH 7.5, 100 mM NaCl, 2 mM DTT; one-site fitting model
# [2] = target: BS69/ZMYND11 coiled-coil-MYND tandem domains (BS69_(CC-MYND), residues 440–562) (mouse); test: as above
binder,measurement,setting,value
B1,Kd,[1],93.4 µM
same,Kd,[2],34.9 µM
